US20050069951A1 (KARO BIO, published 2005)
Where no end group is shown, it is not given here. The star is where a group is joined. Biotin = O=C1N[C@H]2[C@H](CS[C@H]2CCCCC(=O)*)N1

Experiments:
[1] = molecular target: T1, Agrobacterium faecalis beta-glucosidase (Agrobacterium faecalis, UniProt P12614 1-459, biotinylated with Sulfo NHS-LC-LC biotin, sites not stated); test: phage ELISA, biotinylated target on streptavidin plate
T1 construct: captured on streptavidin beads or plates; also called β-glucosidase
T1 sequence: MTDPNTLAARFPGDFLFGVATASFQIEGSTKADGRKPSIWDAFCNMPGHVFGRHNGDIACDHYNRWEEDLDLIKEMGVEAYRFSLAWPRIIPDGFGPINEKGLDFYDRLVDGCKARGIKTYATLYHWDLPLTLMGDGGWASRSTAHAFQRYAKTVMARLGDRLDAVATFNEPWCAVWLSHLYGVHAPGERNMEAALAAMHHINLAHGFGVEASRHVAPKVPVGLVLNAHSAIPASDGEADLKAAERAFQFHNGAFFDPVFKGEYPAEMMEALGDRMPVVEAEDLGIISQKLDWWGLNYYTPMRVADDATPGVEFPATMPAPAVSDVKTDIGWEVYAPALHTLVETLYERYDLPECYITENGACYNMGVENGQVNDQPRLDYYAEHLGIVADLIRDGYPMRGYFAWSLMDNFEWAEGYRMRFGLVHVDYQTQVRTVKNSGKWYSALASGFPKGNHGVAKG

[2] = molecular target: T2, Yeast alcohol dehydrogenase (yeast, UniProt P00330 2-348); test: cross reactivity phage ELISA
T2 sequence (looked up): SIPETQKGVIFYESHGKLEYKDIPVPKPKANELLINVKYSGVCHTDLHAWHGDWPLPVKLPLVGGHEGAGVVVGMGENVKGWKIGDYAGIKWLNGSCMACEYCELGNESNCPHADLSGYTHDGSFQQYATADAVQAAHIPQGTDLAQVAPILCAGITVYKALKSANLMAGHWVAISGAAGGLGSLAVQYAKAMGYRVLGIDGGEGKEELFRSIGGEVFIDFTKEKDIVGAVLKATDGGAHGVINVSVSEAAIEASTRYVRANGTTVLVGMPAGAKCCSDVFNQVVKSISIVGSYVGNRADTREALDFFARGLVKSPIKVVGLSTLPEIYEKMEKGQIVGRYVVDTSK

[3] = molecular target: T3, E. coli proline tRNA synthetase (E. coli, UniProt P16659 1-572); test: phage ELISA on immobilized ProRS and a variety of proteins
T3 construct: also called ProRS; E. coli ProRS
T3 sequence: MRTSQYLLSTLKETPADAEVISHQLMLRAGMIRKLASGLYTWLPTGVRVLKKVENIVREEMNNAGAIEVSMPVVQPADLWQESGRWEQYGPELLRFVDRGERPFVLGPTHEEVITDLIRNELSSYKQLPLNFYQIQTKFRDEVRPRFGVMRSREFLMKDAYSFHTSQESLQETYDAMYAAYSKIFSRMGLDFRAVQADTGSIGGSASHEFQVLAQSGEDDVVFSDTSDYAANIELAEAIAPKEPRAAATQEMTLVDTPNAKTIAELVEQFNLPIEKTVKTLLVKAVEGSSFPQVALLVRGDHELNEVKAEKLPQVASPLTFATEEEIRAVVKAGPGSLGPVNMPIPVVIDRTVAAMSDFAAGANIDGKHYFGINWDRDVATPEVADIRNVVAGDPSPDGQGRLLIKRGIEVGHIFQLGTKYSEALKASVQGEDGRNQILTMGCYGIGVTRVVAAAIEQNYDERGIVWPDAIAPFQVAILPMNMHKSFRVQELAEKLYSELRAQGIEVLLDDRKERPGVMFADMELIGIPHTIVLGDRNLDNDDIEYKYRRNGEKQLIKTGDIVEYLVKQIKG

[4] = molecular target: T4, carboxypeptidase B from pig pancreas (pig, UniProt P09955 111-416); test: cross reactivity phage ELISA
T4 sequence (looked up): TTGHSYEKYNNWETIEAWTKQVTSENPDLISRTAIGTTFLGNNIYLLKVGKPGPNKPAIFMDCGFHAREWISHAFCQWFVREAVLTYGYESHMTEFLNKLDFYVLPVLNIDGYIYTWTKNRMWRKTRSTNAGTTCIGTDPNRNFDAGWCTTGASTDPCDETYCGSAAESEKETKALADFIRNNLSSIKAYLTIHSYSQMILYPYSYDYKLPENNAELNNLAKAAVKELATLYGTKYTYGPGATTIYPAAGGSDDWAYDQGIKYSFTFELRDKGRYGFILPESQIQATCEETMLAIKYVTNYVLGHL

[5] = molecular target: T3, E. coli proline tRNA synthetase; test: ELSA, immobilized ProRS
GST = molecular target: T5, GST (UniProt P08515 1-218 = GST); test: ELSA: biotinylated peptide pre-complexed with SA-AP, immobilized target
T5 construct: also called glutathione-S-transferase
Procedure: (§1) Target protein was immobilized in microtiter wells by incubating 0.5-2.0 μg per well in 100 μl of 0.1 M NaHCO₃ overnight at 4° C. […] During the 1 hour blocking period, the SA-AP:surrogate ligand conjugate was prepared by mixing 2 μg SA-AP and 50 pmol biotinylated surrogate ligand for each well of target protein. (This corresponds to a 1:1 ratio of biotinylated peptide to biotin binding sites.) The mixture was incubated at room temperature for 15-20 minutes and then diluted with Tris-buffered saline-Tween-20 (TBST) 10 mM Tris-HCl, pH 8.0, 150 mM NaCl, 0.05% Tween-20 such that there was 100 μl of conjugate per well.
(§2) After blocking, the wells were washed once with 200 μl TBST. The surrogate ligand:SA-AP conjugate was then added (100 μl/well) and incubated at room temperature for 2 hours. […] The assay was developed by adding 100 μl of pNPP and incubating at room temperature for 5-10 minutes. The absorbance was read at 405 nm.

streptavidin = streptavidin (UniProt P22629 37-163, limits assumed); test: as above
Procedure: as §1, §2

biotinylated ProRS = molecular target: T6, biotinylated ProRS (E. coli, UniProt P16659 1-572, biotinylated with Sulfo NHS-LC-LC biotin, sites not stated); test: phage ELISA, biotinylated target
T6 construct: also called biotinylated E. coli ProRS
T6 sequence: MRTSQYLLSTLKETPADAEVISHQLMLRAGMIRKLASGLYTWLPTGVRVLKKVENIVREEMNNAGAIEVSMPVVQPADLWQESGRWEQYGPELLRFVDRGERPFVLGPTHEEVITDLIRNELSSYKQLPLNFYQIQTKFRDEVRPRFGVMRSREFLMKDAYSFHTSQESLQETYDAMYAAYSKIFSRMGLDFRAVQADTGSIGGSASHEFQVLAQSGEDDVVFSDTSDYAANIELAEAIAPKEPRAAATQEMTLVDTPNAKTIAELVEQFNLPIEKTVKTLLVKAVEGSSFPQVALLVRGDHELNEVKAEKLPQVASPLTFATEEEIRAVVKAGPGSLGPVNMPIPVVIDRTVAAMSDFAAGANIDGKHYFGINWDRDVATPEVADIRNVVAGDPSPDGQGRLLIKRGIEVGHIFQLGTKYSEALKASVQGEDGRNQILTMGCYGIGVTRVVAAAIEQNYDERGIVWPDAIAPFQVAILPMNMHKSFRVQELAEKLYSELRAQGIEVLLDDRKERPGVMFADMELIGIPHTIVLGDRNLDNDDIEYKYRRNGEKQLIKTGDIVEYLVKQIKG

[6] = molecular target: T3, E. coli proline tRNA synthetase; test: ELSA, immobilized targets (legend of FIG. 17)
[7] = molecular target: T3, E. coli proline tRNA synthetase; test: tRNA charging assay (enzyme inhibition), competitive in respect to proline

Chain of streptavidin (P22629 37-163 limits assumed): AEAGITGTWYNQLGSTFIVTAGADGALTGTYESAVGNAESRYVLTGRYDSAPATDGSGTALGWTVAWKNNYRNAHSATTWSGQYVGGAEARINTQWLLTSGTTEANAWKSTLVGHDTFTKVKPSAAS
T5 sequence (P08515 whole entry): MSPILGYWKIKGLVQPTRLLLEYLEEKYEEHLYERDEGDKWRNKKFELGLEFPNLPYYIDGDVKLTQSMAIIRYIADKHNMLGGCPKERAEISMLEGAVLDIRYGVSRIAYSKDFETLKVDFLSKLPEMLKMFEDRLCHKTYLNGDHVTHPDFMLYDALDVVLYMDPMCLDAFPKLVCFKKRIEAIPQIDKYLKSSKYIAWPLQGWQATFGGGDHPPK

## SSTSLPFNRWPIYSR (on M13 phage; group 2) [phage-displayed peptide SSTSLPFNRWPIYSR (N library)]
[1]
  binding result: binds

## SSNYWWQSPVLSRHSR (on M13 phage) [phage-displayed peptide SSNYWWQSPVLSRHSR (CWL library)]
[2]
  fold ELISA signal on the specific target vs any other targets tested: ≥ 10 fold

B1: ProRS-binding phage peptide SRVCAIWPDLDGCSR (X10C library) (peptide)
peptide: SRVCAIWPDLDGCSR
notes: on M13 phage; SR linkers included as printed; also called most often isolated phage
[3]
  binding result: binds

## SSQTDWRKIFQSLSR (on M13 phage; group 1) [phage-displayed peptide SSQTDWRKIFQSLSR (K library)]
[1]
  binding result: binds

## SSASYAPWPIYFASR (on M13 phage; group 2) [phage-displayed peptide SSASYAPWPIYFASR (W library)]
[1]
  binding result: binds

## SRWCDIWPDTGSCSR (on M13 phage) [ProRS-binding phage peptide SRWCDIWPDTGSCSR (P library)]
[3]
  binding result: binds

## SRLLEVSPGWWQMSR (on M13 phage) [phage-displayed peptide SRLLEVSPGWWQMSR (P library)]
[4]
  fold ELISA signal on the specific target vs any other targets tested: ≥ 10 fold

B2: biotinylated UL44 surrogate ligand peptide (peptide)
peptide: Biotin-SGSGEHVCSWGWGRC
modifications: not fully specified (bridges); cysteine pairing not given here
notes: synthetic; pre-complexed with streptavidin alkaline phosphatase (SA-AP) in the ELSA; also called UL44 BioKey
[5]
  binding result: no binding
GST
  binding result: no binding
streptavidin
  binding result: no binding

## SRDWGFWDWGVDRSR (on M13 phage) [phage-displayed peptide SRDWGFWDWGVDRSR (D library)]
Biotinylated ProRS
  binding result: binds

## SRQVEVFKPWPVYSR (on M13 phage; group 2) [phage-displayed peptide SRQVEVFKPWPVYSR (K library)]
[2]
  fold ELISA signal on the specific target vs any other targets tested: ≥ 10 fold

## SSEPFSVWPIYKHSR (on M13 phage; group 2) [phage-displayed peptide SSEPFSVWPIYKHSR (W library)]
[1]
  binding result: binds

## SRWCELWPEGSGCSR (on M13 phage) [ProRS-binding phage peptide SRWCELWPEGSGCSR (P library)]
[3]
  binding result: binds

## SREWHFWRDYNPTSR (on M13 phage) [phage-displayed peptide SREWHFWRDYNPTSR (R library)]
Biotinylated ProRS
  binding result: binds

## SRDWGFWRLPESMASR (on M13 phage) [phage-displayed peptide SRDWGFWRLPESMASR (CWL library)]
Biotinylated ProRS
  binding result: binds

## SSATDWGRVYSILSR (on M13 phage; group 1) [phage-displayed peptide SSATDWGRVYSILSR (R library)]
[1]
  binding result: binds

## LYSWPDEQYERP (also: biotinylated, position not given here, also called TyrRS1B; TyrRS BioKey) [biotinylated peptide TyrRS1]
[6]
  binding result: no binding

## SRLCDIMPQTVGCSR (on M13 phage) [ProRS-binding phage peptide SRLCDIMPQTVGCSR (P library)]
[3]
  binding result: binds

## SSFRELKPGWWSYSR (on M13 phage) [phage-displayed peptide SSFRELKPGWWSYSR (P library)]
[4]
  fold ELISA signal on the specific target vs any other targets tested: ≥ 10 fold

B3: non-biotinylated ProRS peptide (peptide)
peptide: VCAIWPDLDGC
notes: also called non-biotinylated ProRS surrogate ligand
[7]
  Ki: > 500 µM

## SSSVPFAPWPVYASR (on M13 phage; group 2) [phage-displayed peptide SSSVPFAPWPVYASR (P library)]
[1]
  binding result: binds

## SRWCEVWPDKRWCSR (on M13 phage) [ProRS-binding phage peptide SRWCEVWPDKRWCSR (P library)]
[3]
  binding result: binds

## SSSTDWLNVWRQLSR (on M13 phage; group 1) [phage-displayed peptide SSSTDWLNVWRQLSR (N library)]
[1]
  binding result: binds

## SRWCELWSQDIGCSR (on M13 phage) [ProRS-binding phage peptide SRWCELWSQDIGCSR (X10C library)]
[3]
  binding result: binds

## SSERGSGDRGEKGSR (on M13 phage) [phage-displayed peptide SSERGSGDRGEKGSR (D library)]
Biotinylated ProRS
  binding result: binds

## SRWCSLRPQDEGCSR (on M13 phage) [ProRS-binding phage peptide SRWCSLRPQDEGCSR (X10C library)]
[3]
  binding result: binds

## SSWGDYFNWRDGLSR (on M13 phage) [phage-displayed peptide SSWGDYFNWRDGLSR (N library)]
[4]
  fold ELISA signal on the specific target vs any other targets tested: ≥ 10 fold

## SSGAFKPWPVYSFSR (on M13 phage; group 2) [phage-displayed peptide SSGAFKPWPVYSFSR (W library)]
[1]
  binding result: binds

## SSLLNESRLQWSTSR (on M13 phage) [phage-displayed peptide SSLLNESRLQWSTSR (R library)]
[2]
  fold ELISA signal on the specific target vs any other targets tested: ≥ 10 fold

## SRLCEVWPQTAGCSR (on M13 phage) [ProRS-binding phage peptide SRLCEVWPQTAGCSR (X10C library)]
[3]
  binding result: binds

## SVSVGMKPSPRP (on M13 phage) [phage-displayed peptide SVSVGMKPSPRP (PHD12 library)]
[2]
  fold ELISA signal on the specific target vs any other targets tested: ≥ 10 fold

## SSSFKPWPIYLGSSR (on M13 phage; group 2) [phage-displayed peptide SSSFKPWPIYLGSSR (P library)]
[2]
  fold ELISA signal on the specific target vs any other targets tested: ≥ 10 fold

## SSWQGNVLLGNWISR (on M13 phage) [phage-displayed peptide SSWQGNVLLGNWISR (L library)]
[2]
  fold ELISA signal on the specific target vs any other targets tested: ≥ 10 fold
